Data set [1] deals with T1, WRN (human, UniProt Q14191 1-1432). Briefly: EMSA; ATPgS, 4 mM Mg2+, 10 mM KCl; EMSA: 40 mM Tris-HCl pH 8.0, 4 mM MgCl2, 5 mM DTT, 1 mM ATPgS, 0.1 ug BSA in 10 ul, 4 C, 20 min; +10 mM KCl for quadruplexes; 4% gel, 0.5x Tris-glycine pH 8.3. The following applies: protein: recombinant, tags: His6, label: 5'-32P. In general terms: In EMSA bound probe runs differently from free probe, usually more slowly.

Another data set addresses BLM (UniProt P54132 1-1417). Described as above. Conditions: protein: recombinant; tags: C-terminal FLAG; label: 5'-32P; G4 tetramer of 4 parallel strands.
Data set [2] deals with T1, WRN. The data set can be described thus: EMSA; ATPgS, 4 mM Mg2+; EMSA: 40 mM Tris-HCl pH 8.0, 4 mM MgCl2, 5 mM DTT, 1 mM ATPgS, 0.1 ug BSA in 10 ul, 4 C, 20 min; +10 mM KCl for quadruplexes; 4% gel, 0.5x Tris-glycine pH 8.3. Conditions: protein: recombinant, tags: His6.
For data set [3], the target named is T1, WRN. The data set can be described thus: EMSA; ATPgS, 10 mM KCl; tight, similar to G'2 TeR43; EMSA: 40 mM Tris-HCl pH 8.0, 4 mM MgCl2, 5 mM DTT, 1 mM ATPgS, 0.1 ug BSA in 10 ul, 4 C, 20 min; +10 mM KCl for quadruplexes; 4% gel, 0.5x Tris-glycine pH 8.3. Conditions: protein: recombinant; tags: His6; label: 5'-32P; G4 dimer of 2 strands, described as antiparallel.

The next data set has as its target WRN K577M (human, UniProt Q14191 1-1432, K577M). The data set can be described thus: EMSA; similar to wild type; EMSA: 40 mM Tris-HCl pH 8.0, 4 mM MgCl2, 5 mM DTT, 1 mM ATPgS, 0.1 ug BSA in 10 ul, 4 C, 20 min; +10 mM KCl for quadruplexes; 4% gel, 0.5x Tris-glycine pH 8.3. The following applies: protein: recombinant; tags: His6; label: 5'-32P; G4 dimer of 2 strands, described as antiparallel.

The Kd is the equilibrium constant for the complex coming apart.

T1 sequence (Q14191 whole entry): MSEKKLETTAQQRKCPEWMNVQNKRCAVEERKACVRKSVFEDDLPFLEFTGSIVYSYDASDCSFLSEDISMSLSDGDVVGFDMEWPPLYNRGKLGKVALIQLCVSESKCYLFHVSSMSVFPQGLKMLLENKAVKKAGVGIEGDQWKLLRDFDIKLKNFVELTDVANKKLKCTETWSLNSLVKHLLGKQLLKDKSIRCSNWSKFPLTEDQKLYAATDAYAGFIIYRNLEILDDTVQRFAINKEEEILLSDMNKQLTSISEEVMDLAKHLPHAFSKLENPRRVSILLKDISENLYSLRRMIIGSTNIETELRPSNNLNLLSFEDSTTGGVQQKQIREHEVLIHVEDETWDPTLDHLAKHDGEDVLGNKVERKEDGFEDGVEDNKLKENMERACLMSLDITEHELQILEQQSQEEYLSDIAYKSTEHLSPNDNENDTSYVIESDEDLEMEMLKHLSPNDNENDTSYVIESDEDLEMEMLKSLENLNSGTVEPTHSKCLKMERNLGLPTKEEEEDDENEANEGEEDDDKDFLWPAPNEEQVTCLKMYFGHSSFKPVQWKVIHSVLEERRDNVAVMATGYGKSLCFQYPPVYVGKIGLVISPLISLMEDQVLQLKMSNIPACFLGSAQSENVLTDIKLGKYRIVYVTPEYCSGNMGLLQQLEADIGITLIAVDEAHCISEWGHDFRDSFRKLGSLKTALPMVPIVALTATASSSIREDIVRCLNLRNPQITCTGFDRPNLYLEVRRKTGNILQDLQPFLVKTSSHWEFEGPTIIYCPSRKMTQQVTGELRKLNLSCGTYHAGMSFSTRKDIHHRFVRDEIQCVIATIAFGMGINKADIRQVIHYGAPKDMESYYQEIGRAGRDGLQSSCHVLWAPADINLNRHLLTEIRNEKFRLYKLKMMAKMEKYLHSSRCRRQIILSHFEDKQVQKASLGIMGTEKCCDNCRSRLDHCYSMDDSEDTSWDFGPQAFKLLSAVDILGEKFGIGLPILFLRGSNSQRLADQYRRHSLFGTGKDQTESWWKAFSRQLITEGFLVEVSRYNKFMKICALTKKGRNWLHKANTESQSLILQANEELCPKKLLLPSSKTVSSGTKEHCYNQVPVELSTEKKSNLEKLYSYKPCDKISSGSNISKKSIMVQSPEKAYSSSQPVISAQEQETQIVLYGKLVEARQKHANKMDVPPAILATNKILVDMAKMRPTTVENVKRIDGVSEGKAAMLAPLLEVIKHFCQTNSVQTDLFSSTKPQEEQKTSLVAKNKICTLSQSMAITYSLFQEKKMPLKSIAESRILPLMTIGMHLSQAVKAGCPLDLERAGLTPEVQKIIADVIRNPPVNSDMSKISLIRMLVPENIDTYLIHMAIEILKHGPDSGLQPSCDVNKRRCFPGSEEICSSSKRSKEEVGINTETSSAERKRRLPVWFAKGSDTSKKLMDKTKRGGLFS
Sequence of BLM (P54132 whole entry): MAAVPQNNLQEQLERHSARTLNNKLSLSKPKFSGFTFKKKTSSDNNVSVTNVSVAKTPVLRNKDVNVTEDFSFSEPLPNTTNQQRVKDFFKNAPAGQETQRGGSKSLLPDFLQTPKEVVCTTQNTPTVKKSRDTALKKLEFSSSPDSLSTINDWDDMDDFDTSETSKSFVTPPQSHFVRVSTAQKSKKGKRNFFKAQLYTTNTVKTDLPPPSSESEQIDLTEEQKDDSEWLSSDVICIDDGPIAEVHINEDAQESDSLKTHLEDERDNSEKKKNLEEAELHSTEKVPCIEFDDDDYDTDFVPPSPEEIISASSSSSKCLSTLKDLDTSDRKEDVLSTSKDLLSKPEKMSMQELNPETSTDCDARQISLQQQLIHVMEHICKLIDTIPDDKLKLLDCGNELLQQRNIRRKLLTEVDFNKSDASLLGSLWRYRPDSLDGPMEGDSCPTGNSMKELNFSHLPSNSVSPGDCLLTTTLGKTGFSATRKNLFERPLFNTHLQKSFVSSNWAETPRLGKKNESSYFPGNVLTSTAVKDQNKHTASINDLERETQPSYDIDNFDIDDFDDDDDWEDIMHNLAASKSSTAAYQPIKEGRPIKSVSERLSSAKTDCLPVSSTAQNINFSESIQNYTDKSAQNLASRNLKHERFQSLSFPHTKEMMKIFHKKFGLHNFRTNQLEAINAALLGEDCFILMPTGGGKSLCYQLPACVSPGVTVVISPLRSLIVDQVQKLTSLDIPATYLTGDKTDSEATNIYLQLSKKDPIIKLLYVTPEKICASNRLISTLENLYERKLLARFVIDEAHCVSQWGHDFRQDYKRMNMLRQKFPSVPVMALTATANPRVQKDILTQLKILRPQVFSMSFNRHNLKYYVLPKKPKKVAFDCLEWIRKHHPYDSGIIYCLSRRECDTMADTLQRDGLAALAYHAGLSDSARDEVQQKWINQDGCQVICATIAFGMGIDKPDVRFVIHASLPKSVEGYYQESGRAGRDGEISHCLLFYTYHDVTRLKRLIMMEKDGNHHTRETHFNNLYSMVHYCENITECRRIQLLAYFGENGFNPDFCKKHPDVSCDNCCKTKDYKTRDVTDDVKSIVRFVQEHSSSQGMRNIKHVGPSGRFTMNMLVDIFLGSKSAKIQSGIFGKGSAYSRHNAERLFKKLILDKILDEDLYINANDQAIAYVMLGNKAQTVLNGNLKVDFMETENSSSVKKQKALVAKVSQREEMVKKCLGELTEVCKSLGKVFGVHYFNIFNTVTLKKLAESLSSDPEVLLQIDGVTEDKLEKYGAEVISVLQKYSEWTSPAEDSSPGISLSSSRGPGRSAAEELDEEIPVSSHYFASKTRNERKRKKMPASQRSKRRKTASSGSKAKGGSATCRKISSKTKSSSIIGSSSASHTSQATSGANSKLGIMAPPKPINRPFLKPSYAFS
Sequence of WRN K577M (Q14191 whole entry K577M): as the sequence (Q14191 whole entry) above, with K577M counted along it

For the molecule TGGACCAGACCTAGCAGCTATGGGGGAGCTGGGGAAGGTGGGAATGTGA (structured_DNA) [G4 IgG quadruplex], the figures for the Kd with WRN [1] (G4 tetramer of 4 parallel strands) and with BLM were 3.4 ± 0.4 nM and 7 ± 2.9 nM, respectively.

B1: dsTeR63 partial duplex (dsDNA)
DNA 1: GGTTAGGGTTAGGGTTAGGGTTAGGGTTAGTTAGGGTTAGGGTTAGGGTTAGGGGCGATTGAT
DNA 2: ATCAATCGCCCCTAACCC
As for B1, in the data set with WRN [2] (label: 5'-32P on strand 2, 18 bp, 45 nt 5' tail on strand 1), the Kd turned out to be 7.6 ± 2.9 nM.

B2: G'2 TeR63 quadruplex (structured_DNA)
DNA: GGTTAGGGTTAGGGTTAGGGTTAGGGTTAGTTAGGGTTAGGGTTAGGGTTAGGGGCGATTGAT
Regarding B2, the binding result in the data set with WRN [3] is recorded as “binds”.

B3: Splayed arm DNA (dsDNA)
DNA 1: CGCGCCGAATTCCCGCTAGCAATATTCTGCAGCCAAGCTTCCGCGC
DNA 2: GGCGAACTGCCATTCGCACTTACACTGCTAGCGGGAATTCGGCGCG
With B3, in the data set with WRN [2] (label: 5'-32P on strand 1, fork), the Kd worked out at 6.2 ± 1.3 nM.

B4: 20/46 partial duplex (dsDNA)
DNA 1: CGCTAGCAATATTCTGCAGC
DNA 2: GCGCGGAAGCTTGGCTGCAGAATATTGCTAGCGGGAAATCGGCGCG
modifications: 3'-terminal inverted dC on the 20-mer
On to B4, for which the Kd in the data set with WRN [2] (label: 5'-32P on strand 1, 20 bp, 13 nt 5' and 13 nt 3' tails on strand 2) is 2.3 ± 1.3 nM.

B5: Bubble DNA (dsDNA)
DNA 1: GCGCGGAAGCTTGGCTGCAGAATATTGCTAGCGGGAATTCGGCGCG
DNA 2: CGCGCCGAATTCCCGCTAGTGGCGCCTTGCAGCCAAGCTTCCGCGC
Consider B5, for which, in the data set with WRN [2] (label: 5'-32P on strand 1, blunt, 8 nt non-complementary central bubble), the Kd stood at 24.7 ± 3.5 nM.

For GGTTAGGGTTAGGGTTAGGGTTAGGGTTAGTTAGGGTTAGGGT (structured_DNA) [G'2 TeR43 quadruplex], the Kd with WRN [1] (G4 dimer of 2 strands, described as antiparallel) was 0.26 ± 0.08 nM. In addition, the binding result in the data set with WRN K577M is reported as “binds”.

The values are drawn from PMC3260238, “The Werner Syndrome Protein Is Distinguished from the Bloom Syndrome Protein by Its Capacity to Tightly Bind Diverse DNA Structures”.
